System: MS2 coat protein
Test: apparent KD of MS2 coat protein; designed switch direction (-1 OFF switch, 1 ON switch): -1; higher = weaker reporter binding
Summary of the method: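 SNAP-549-labelled MS2 coat protein was titrated, doubling from 0.7 or 1.5 nM to 3 µM, over designed RNA switches transcribed on Illumina chips by stalled E. coli RNA polymerase. Runs were done without input, with 200 uM small-molecule ligand, or with an oligonucleotide input. Apparent KD is the per-design median over clusters of curve-fitted normalised fluorescence.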

[1] = input ligand: microRNA oligo, concentration not stated
[2] = Eterna round: R95, input ligand: FMN 200 uM
[3] = Eterna round: R95, input ligand: microRNA oligo, concentration not stated
[4] = Eterna round: R95, input ligand: none

Sequence	apparent KD of MS2 coat protein (input ligand: FMN 200 uM)	apparent KD of MS2 coat protein [1]	apparent KD of MS2 coat protein (input ligand: none)	apparent KD of MS2 coat protein [2]	apparent KD of MS2 coat protein [3]	apparent KD of MS2 coat protein [4]
UUUUUAUAUGAAGGAUAUACUUAACAUGAGGAUCACCCAUGUGGUGUUGUGAGUGAGUGAGUUUAGUAGAAGGUCAAUUAUAUU [JMF's solution 13] (Eterna round: R96, puzzle: Exclusion NG 2)	574 nM	316 nM	350 nM			
GGUCAAGAACAGAUCCGCGCUGUCAUUGACCGCUCAUUUACAUGAGGAUCACCCAUGUUUUUUGCUUGUCUUGUUAC [Edrama] (puzzle: Sensor v3, turn-off variant 2)				19.6 nM	88.3 nM	18.2 nM
GAGGUACAUGAGGAUCACCCAUGUGAGGAUAUAGGUAGAGAUUGAGAGAGGUGGAGGACUAGAAGGCACAGUGG [JR_Exclu1_Sub040] (puzzle: Exclusion 1)				59.6 nM	46 nM	60.3 nM
AUGAGACAUGAGGAUCACCCAUGUGAGGAUAUGUAUGGAUGAAGGAAAGAAUGAGAGAACAGAAGGCACGAAGA [JR_Exclu1_Sub064] (puzzle: Exclusion 1)				109 nM	98.9 nM	138 nM
GAACUCGUGAAGGAUAUCCGUACCAAAGCGGCAGGAGAAGGUCACACAUGAGGAUCACCCAUGUGGUACCUCGU [Xeinbira] (puzzle: Exclusion 6)				80.1 nM	27.4 nM	25.1 nM
AGGCCUCGAGGAUAUACAUGAGGAUCACCCAUGUCAUAAUAGAUUGUUAUGAGACAUCGUAGAAGGCGAUGGCC [Eternabot (L2) Solution 98] (Eterna round: R97, puzzle: Exclusion 3)	78.1 nM		30 nM			
AAAAUACAUGAGGAUCACCCAUGUGAGGAUAUGAGAGUCAUUUAUAUAUAUUAGAUUCUCAGAAGGCACAUAAA [JR_Ex1_Sub068] (Eterna round: R97, puzzle: Exclusion 1)	211 nM		53.7 nM			
GCACGGUGAGGAUAUAUAAAUGGGCAUGUCGAGAACCGUUCACAUGAGGAUCACCCAUGUAGAAGGCGCCUGUG [Eternabot (L2) Solution 58] (Eterna round: R97, puzzle: Exclusion 2)	115 nM		49 nM			
UCUGCCGCUGUGAGGAUAUGCCCAAAUAAAAGCGGGCAGAAGGCACAUGAGGAUCACCCAUGUCCUGCGGUUUU [salish99_bmx4_r4_143] (Eterna round: R97, puzzle: Brourd's mod of Exclusion 4)	180 nM		28.8 nM			
UACACGGGAGGAUAUACGUAGAUGCAGGUUCGUGUGGUGCUACAUGAGGAUCACCCAUGUAGAAGGCCCAACGU [Mod 4 R3 JL-ex2-2.29] (Eterna round: R97, puzzle: Exclusion 2)	26.3 nM		23.4 nM			
UAGGAGAGAGUGAGGAUAUCCGGAAGAGAGGAUCAGGAGAAGGCACAUGAGGAUCACCCAUGUAAAAGAGGGAA [I think I solved risk of not working] (Eterna round: R97, puzzle: Brourd's mod of Exclusion 4)	63.5 nM		51.9 nM			
ACGCCGCAAGGAUAUACUUGCGGUGAUGUUCGAGUUCUUCUACUUGAGGAUCACCCAAGUAGAAGGUGCAAAAC [jl-ex2.4.60 ViennaUCT mod] (Eterna round: R97, puzzle: Exclusion 2)	14.9 nM		14 nM			
AUAAUGUCAGGAUAUCAGACGUACAGCUGCGGCUGUACGUCUGAGAAGGGACAUGAGGAUCACCCAUGUGAUUA [E4/3-A3] (Eterna round: R97, puzzle: Exclusion 4)	124 nM		1460 nM			
UUCUCGACAUGAGGAUCACCCAUGUAGUGGGAGAAAACUGGUUAGGAUAUAAAAUAGUACACCGUUUAGAAGGGACCUAUCCUC [Eternabot solution 4] (Eterna round: R96, puzzle: Exclusion NG 3)	79.2 nM	45.7 nM	72.3 nM			

Reference: the supplement of paper PMC9170038
